# Where two headings read alike, the source gives them in different places.
# How the values were obtained:
# [1] = target: wild type human TSHR (human) (UniProt P16473); assay: cell-based or functional assay
# [2] = target: TSHR with Arg255 mutated to Aspartic acid (human) (UniProt P16473); assay: cell-based or functional assay
# [3] = target: TSHR coated onto tubes (human) (UniProt P16473); assay: TSHR coated tubes, competitor 125I-TSH
# [4] = target: wild type human TSHR (human) (UniProt P16473); assay: cell-based or functional assay; remark: listed apart in the source
# [5] = target: TSHR with Arg80 mutated to Alanine (human) (UniProt P16473); assay: cell-based or functional assay
# [6] = target: wild type human TSHR (human) (UniProt P16473); assay: cell-based or functional assay; remark: listed apart in the source
# [7] = target: TSHR with Gln235 mutated to Alanine (human) (UniProt P16473); assay: cell-based or functional assay
# Sequence of 5C9 IgG (antibody) (VH): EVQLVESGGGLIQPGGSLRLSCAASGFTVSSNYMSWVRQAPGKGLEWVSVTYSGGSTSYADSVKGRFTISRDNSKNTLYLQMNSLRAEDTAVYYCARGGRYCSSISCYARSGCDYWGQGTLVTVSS
# Sequence of 5C9 IgG (antibody) (VL): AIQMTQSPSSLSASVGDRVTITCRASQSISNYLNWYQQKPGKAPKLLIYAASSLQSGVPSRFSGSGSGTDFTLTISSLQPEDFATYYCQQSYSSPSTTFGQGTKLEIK
substance,measurement,setting,value
5C9 IgG (antibody),cyclic AMP; 5C9 0.01 µg/mL + TSH (fmol/cell well),[1],17500
same,cyclic AMP; 5C9 0.1 µg/mL + TSH (fmol/cell well),[1],6600
same,cyclic AMP; 5C9 1.0 µg/mL + TSH (fmol/cell well),[1],3380
same,cyclic AMP; 5C9 10 µg/mL + TSH (fmol/cell well),[1],1240
same,cyclic AMP; 5C9 100 µg/mL + TSH (fmol/cell well),[1],1510
same,cyclic AMP; 5C9 100 µg/mL only (fmol/cell well),[1],278
same,Mutated/wild type (%); 5C9 0.01 µg/mL + TSH,[2],89%
same,Mutated/wild type (%); 5C9 0.1 µg/mL + TSH,[2],85%
same,Mutated/wild type (%); 5C9 1.0 µg/mL + TSH,[2],57%
same,Mutated/wild type (%); 5C9 10 µg/mL + TSH,[2],59%
same,Mutated/wild type (%); 5C9 100 µg/mL + TSH,[2],94%
same,Mutated/wild type (%); 5C9 100 µg/mL only,[2],201%
same,cyclic AMP; 5C9 0.01 µg/mL + TSH (fmol/cell well),[2],15700
same,cyclic AMP; 5C9 0.1 µg/mL + TSH (fmol/cell well),[2],5580
same,cyclic AMP; 5C9 1.0 µg/mL + TSH (fmol/cell well),[2],1930
same,cyclic AMP; 5C9 10 µg/mL + TSH (fmol/cell well),[2],735
same,cyclic AMP; 5C9 100 µg/mL + TSH (fmol/cell well),[2],1410
same,cyclic AMP; 5C9 100 µg/mL only (fmol/cell well),[2],559
same,% inhib of 125I-TSH binding at 0.01 µg/mL,[3],2%
same,% inhib of 125I-TSH binding at 0.1 µg/mL,[3],8%
same,% inhib of 125I-TSH binding at 1 µg/mL,[3],21%
same,% inhib of 125I-TSH binding at 10 µg/mL,[3],30%
same,% inhib of 125I-TSH binding at 100 µg/mL,[3],50%
same,cyclic AMP; 5C9 0.01 µg/mL + TSH (fmol/cell well),[4],14400
same,cyclic AMP; 5C9 0.1 µg/mL + TSH (fmol/cell well),[4],11300
same,cyclic AMP; 5C9 1.0 µg/mL + TSH (fmol/cell well),[4],6700
same,cyclic AMP; 5C9 10 µg/mL + TSH (fmol/cell well),[4],2110
same,cyclic AMP; 5C9 100 µg/mL + TSH (fmol/cell well),[4],2230
same,cyclic AMP; 5C9 100 µg/mL only (fmol/cell well),[4],244
same,Mutated/wild type (%); 5C9 0.01 µg/mL + TSH,[5],99%
same,Mutated/wild type (%); 5C9 0.1 µg/mL + TSH,[5],82%
same,Mutated/wild type (%); 5C9 1.0 µg/mL + TSH,[5],20%
same,Mutated/wild type (%); 5C9 10 µg/mL + TSH,[5],55%
same,Mutated/wild type (%); 5C9 100 µg/mL + TSH,[5],23%
same,Mutated/wild type (%); 5C9 100 µg/mL only,[5],202%
same,cyclic AMP; 5C9 0.01 µg/mL + TSH (fmol/cell well),[5],14300
same,cyclic AMP; 5C9 0.1 µg/mL + TSH (fmol/cell well),[5],9280
same,cyclic AMP; 5C9 1.0 µg/mL + TSH (fmol/cell well),[5],1360
same,cyclic AMP; 5C9 10 µg/mL + TSH (fmol/cell well),[5],1160
same,cyclic AMP; 5C9 100 µg/mL + TSH (fmol/cell well),[5],518
same,cyclic AMP; 5C9 100 µg/mL only (fmol/cell well),[5],494
same,cyclic AMP; 5C9 0.01 µg/mL + TSH (fmol/cell well),[6],7180
same,cyclic AMP; 5C9 0.1 µg/mL + TSH (fmol/cell well),[6],7780
same,cyclic AMP; 5C9 1.0 µg/mL + TSH (fmol/cell well),[6],2540
same,cyclic AMP; 5C9 10 µg/mL + TSH (fmol/cell well),[6],532
same,cyclic AMP; 5C9 100 µg/mL + TSH (fmol/cell well),[6],747
same,cyclic AMP; 5C9 100 µg/mL only (fmol/cell well),[6],119
same,Mutated/wild type (%); 5C9 0.01 µg/mL + TSH,[7],244%
same,Mutated/wild type (%); 5C9 0.1 µg/mL + TSH,[7],96%
same,Mutated/wild type (%); 5C9 1.0 µg/mL + TSH,[7],95%
same,Mutated/wild type (%); 5C9 10 µg/mL + TSH,[7],192%
same,Mutated/wild type (%); 5C9 100 µg/mL + TSH,[7],97%
same,Mutated/wild type (%); 5C9 100 µg/mL only,[7],215%
same,cyclic AMP; 5C9 0.01 µg/mL + TSH (fmol/cell well),[7],17500
same,cyclic AMP; 5C9 0.1 µg/mL + TSH (fmol/cell well),[7],7440
same,cyclic AMP; 5C9 1.0 µg/mL + TSH (fmol/cell well),[7],2420
same,cyclic AMP; 5C9 10 µg/mL + TSH (fmol/cell well),[7],1020
same,cyclic AMP; 5C9 100 µg/mL + TSH (fmol/cell well),[7],727
same,cyclic AMP; 5C9 100 µg/mL only (fmol/cell well),[7],256

# Reference: patent publication US8840891 (RSR, dated 2014)
